B1: Q37E, Q93D82 (parent)
chain: MSTAIVTNVKHFGGMGSALRLSEAGHTVACHDESFKQKDELEAFAETYPQLKPMSEQEPAELIEAVTSAYGQVDVLVSNDIFAPEFQPIDKYAVEDYRGAVEALQIRPFALVNAVASQMKKRKSGHIIFITSATPFGPWKELSTYTSARAGACTLANALSKELGEYNIPVFAIGPNYLHSEDSPYFYPTEPWKTNPEHVAHVKKVTALQRLGTQKELGELVAFLASGSCDYLTGQVFWLAGGFPMIERWPGMPE

In the data set the parent is B1. Particulars: Rhizobium radiobacter; pH 7.7; Thermal; CD; Phosphate 5mM; structure 1PWX; whole UniProt chain shown.

The term Tm denotes the temperature at which the thermal transition is half complete. With Q37E, the Tm is 65 °C and the “change of melting temperature, mutant - wild type (higher = more stable)” value (from here on “change of melting temperature, mutant”) turned out to be 0 °C.

As for R98L, the Tm was 65 °C and the “change of melting temperature, mutant” value was 0 °C.

In the case of R98I, the Tm stood at 64.5 °C and the “change of melting temperature, mutant” value was -0.5 °C.

In the case of M54F, the Tm is 63.5 °C and the “change of melting temperature, mutant” value is -1.5 °C.

Turning to H26M, the Tm stood at 64.5 °C and the “change of melting temperature, mutant” value is -0.5 °C.

Regarding A69K, the Tm was determined as 63.5 °C and the “change of melting temperature, mutant” value is -1.5 °C.

Consider A69M, for which the Tm was 62.5 °C and the “change of melting temperature, mutant” value was -2.5 °C.

As for A69R, the Tm is 65.5 °C and the “change of melting temperature, mutant” value was 0.5 °C.

On to A69H, for which the Tm is 64.5 °C and the “change of melting temperature, mutant” value was -0.5 °C.

Consider A69L, for which the Tm turned out to be 64.5 °C and the “change of melting temperature, mutant” value is -0.5 °C.

Consider D39E, for which the Tm was 65 °C and the “change of melting temperature, mutant” value amounted to 0 °C.

Regarding D39K, the Tm came out at 66.5 °C and the “change of melting temperature, mutant” value amounted to 1.5 °C.

As to A45L, the Tm stood at 64 °C and the “change of melting temperature, mutant” value was -1 °C.

In the case of A45K, the Tm is 65.5 °C and the “change of melting temperature, mutant” value amounted to 0.5 °C.

As to T134V, the Tm is 68 °C and the “change of melting temperature, mutant” value was determined as 3 °C.

Consider T134I, for which the Tm was 63.5 °C and the “change of melting temperature, mutant” value was -1.5 °C.

T134W: the Tm turned out to be 64 °C and the “change of melting temperature, mutant” value is -1 °C.

Consider D230N, for which the Tm was determined as 62 °C and the “change of melting temperature, mutant” value was -3 °C.

Take E247Y: the melting temperature (Tm) came to 63 °C and the “change of melting temperature, mutant” value is -2 °C.

Take E247P: the Tm turned out to be 66 °C and the “change of melting temperature, mutant” value amounted to 1 °C.

With S55P, the Tm amounted to 65 °C and the “change of melting temperature, mutant” value came to 0 °C.

Turning to V236I, the Tm came out at 66.5 °C and the “change of melting temperature, mutant” value amounted to 1.5 °C.

Consider T47K, for which the Tm came to 66 °C and the “change of melting temperature, mutant” value came to 1 °C.

Regarding T47S, the Tm was determined as 64.5 °C and the “change of melting temperature, mutant” value is -0.5 °C.

With T47A, the Tm was 63 °C and the “change of melting temperature, mutant” value is -2 °C.

As for A103Y, the Tm came to 60.5 °C and the “change of melting temperature, mutant” value is -4.5 °C.

For A103Q, the Tm stood at 61 °C and the “change of melting temperature, mutant” value was -4 °C.

As to K140S, the Tm was determined as 62.5 °C and the “change of melting temperature, mutant” value is -2.5 °C.

As for T194Q, the Tm came out at 61 °C and the “change of melting temperature, mutant” value was -4 °C.

In the case of N113Q, the Tm was found to be 61.5 °C and the “change of melting temperature, mutant” value was -3.5 °C.

Take N113H: the Tm was found to be 63 °C and the “change of melting temperature, mutant” value is -2 °C.

For the variant P244A, the Tm was determined as 67 °C and the “change of melting temperature, mutant” value stood at 2 °C.

As for V199K, the Tm amounted to 66.5 °C and the “change of melting temperature, mutant” value was 1.5 °C.

Consider C30V, for which the Tm amounted to 64 °C and the “change of melting temperature, mutant” value is -1 °C.

For the variant V75I, the Tm amounted to 65 °C and the “change of melting temperature, mutant” value amounted to 0 °C.

Turning to R107Q, the Tm is 65 °C and the “change of melting temperature, mutant” value was 0 °C.

Regarding E219N, the Tm turned out to be 63.5 °C and the “change of melting temperature, mutant” value is -1.5 °C.

Turning to K123H, the Tm was determined as 65.5 °C and the “change of melting temperature, mutant” value stood at 0.5 °C.

Turning to F82W, the Tm is 59 °C and the “change of melting temperature, mutant” value was -6 °C.

Consider A83N, for which the melting temperature (Tm) is 63 °C and the “change of melting temperature, mutant” value was -2 °C.

Take A83M: the Tm was determined as 65.5 °C and the “change of melting temperature, mutant” value was determined as 0.5 °C.

As to A83Q, the Tm was found to be 65.5 °C and the “change of melting temperature, mutant” value was 0.5 °C.

On to S117A, for which the Tm came out at 63.5 °C and the “change of melting temperature, mutant” value was -1.5 °C.

For S117K, the Tm stood at 65 °C and the “change of melting temperature, mutant” value is 0 °C.

For the variant T213D, the Tm was found to be 62 °C and the “change of melting temperature, mutant” value was -3 °C.

Consider S143V, for which the Tm is 59.5 °C and the “change of melting temperature, mutant” value was -5.5 °C.

As to S228R, the Tm is 64.5 °C and the “change of melting temperature, mutant” value is -0.5 °C.

Consider S228K, for which the Tm turned out to be 64.5 °C and the “change of melting temperature, mutant” value was -0.5 °C.

For the variant S160A, the Tm came to 64.5 °C and the “change of melting temperature, mutant” value was -0.5 °C.

Turning to E64Q, the Tm was found to be 66 °C and the “change of melting temperature, mutant” value came out at 1 °C.

On to E64A, for which the Tm is 66 °C and the “change of melting temperature, mutant” value worked out at 1 °C.

In the case of E64K, the Tm came to 65 °C and the “change of melting temperature, mutant” value is 0 °C.

With L111W, the Tm was 57 °C and the “change of melting temperature, mutant” value is -8 °C.

S17A: the Tm worked out at 65 °C and the “change of melting temperature, mutant” value was 0 °C.

In the case of F136W, the Tm was 60.5 °C and the “change of melting temperature, mutant” value is -4.5 °C.

Regarding F86W, the Tm came to 64.5 °C and the “change of melting temperature, mutant” value was -0.5 °C.

For Q87R, the Tm was 68.5 °C and the “change of melting temperature, mutant” value was determined as 3.5 °C.

Consider T67Q, for which the Tm was determined as 63.5 °C and the “change of melting temperature, mutant” value is -1.5 °C.

Turning to A93K, the Tm was 70.5 °C and the “change of melting temperature, mutant” value came to 5.5 °C.

On to A93N, for which the Tm turned out to be 69 °C and the “change of melting temperature, mutant” value amounted to 4 °C.

For A93T, the Tm is 69.5 °C and the “change of melting temperature, mutant” value was determined as 4.5 °C.

On to S22A, for which the Tm is 64.5 °C and the “change of melting temperature, mutant” value is -0.5 °C.

Turning to E141Q, the Tm worked out at 56 °C and the “change of melting temperature, mutant” value is -9 °C.

Take P253S: the Tm was 62.5 °C and the “change of melting temperature, mutant” value was -2.5 °C.

P253G: the Tm came out at 64.5 °C and the “change of melting temperature, mutant” value was -0.5 °C.

As for H126Y, the Tm was determined as 63.5 °C and the “change of melting temperature, mutant” value was -1.5 °C.

Take H126V: the Tm was found to be 64.5 °C and the “change of melting temperature, mutant” value is -0.5 °C.

For E165A, the Tm was found to be 65.5 °C and the “change of melting temperature, mutant” value worked out at 0.5 °C.

As to E33P, the Tm is 64.5 °C and the “change of melting temperature, mutant” value was -0.5 °C.

For E58Q, the Tm is 67.5 °C and the “change of melting temperature, mutant” value stood at 2.5 °C.

As for E58N, the Tm was 65 °C and the “change of melting temperature, mutant” value amounted to 0 °C.

Turning to E197K, the Tm is 67.5 °C and the “change of melting temperature, mutant” value turned out to be 2.5 °C.

On to Y48F, for which the Tm came out at 65.5 °C and the “change of melting temperature, mutant” value came to 0.5 °C.

In the case of S68K, the Tm is 65 °C and the “change of melting temperature, mutant” value is 0 °C.

With S68Q, the Tm is 63 °C and the “change of melting temperature, mutant” value was -2 °C.

Take S68R: the Tm came to 66.5 °C and the “change of melting temperature, mutant” value was 1.5 °C.

On to S68N, for which the Tm was found to be 65.5 °C and the “change of melting temperature, mutant” value is 0.5 °C.

For the variant N195H, the Tm was found to be 64.5 °C and the “change of melting temperature, mutant” value is -0.5 °C.

With C153V, the Tm was 50.5 °C and the “change of melting temperature, mutant” value was -14.5 °C.

C153H: the Tm came to 53.5 °C and the “change of melting temperature, mutant” value was -11.5 °C.

For the variant C153I, the Tm came out at 60 °C and the “change of melting temperature, mutant” value is -5 °C.

In the case of C153N, the Tm came to 78.5 °C and the “change of melting temperature, mutant” value was 13.5 °C.

As for A158V, the midpoint of thermal melting (Tm) was found to be 71 °C and the “change of melting temperature, mutant” value was determined as 6 °C.

E190L: the Tm turned out to be 65.5 °C and the “change of melting temperature, mutant” value turned out to be 0.5 °C.

For the variant H198M, the Tm amounted to 55 °C and the “change of melting temperature, mutant” value was -10 °C.

Regarding N157F, the Tm was 64 °C and the “change of melting temperature, mutant” value is -1 °C.

Take N157R: the Tm is 60 °C and the “change of melting temperature, mutant” value is -5 °C.

In the case of E42M, the Tm was found to be 66.5 °C and the “change of melting temperature, mutant” value turned out to be 1.5 °C.

Consider E42Q, for which the Tm was found to be 64 °C and the “change of melting temperature, mutant” value was -1 °C.

Turning to K161F, the Tm was 64 °C and the “change of melting temperature, mutant” value is -1 °C.

Regarding T7F, the Tm was found to be 65 °C and the “change of melting temperature, mutant” value is 0 °C.

As to G99A, the Tm amounted to 66 °C and the “change of melting temperature, mutant” value was determined as 1 °C.

As for G99H, the Tm worked out at 65 °C and the “change of melting temperature, mutant” value turned out to be 0 °C.

In the case of G99R, the Tm came to 55.5 °C and the “change of melting temperature, mutant” value was -9.5 °C.

For the variant G99D, the midpoint of thermal melting (Tm) was determined as 65 °C and the “change of melting temperature, mutant” value stood at 0 °C.

Take V205L: the Tm worked out at 63.5 °C and the “change of melting temperature, mutant” value was -1.5 °C.

As to A60Y, the Tm worked out at 64.5 °C and the “change of melting temperature, mutant” value is -0.5 °C.

On to A60K, for which the Tm was determined as 61 °C and the “change of melting temperature, mutant” value is -4 °C.

Turning to A60L, the Tm was 63 °C and the “change of melting temperature, mutant” value is -2 °C.

Turning to A60R, the Tm turned out to be 66.5 °C and the “change of melting temperature, mutant” value turned out to be 1.5 °C.

Consider E56A, for which the melting temperature (Tm) is 65 °C and the “change of melting temperature, mutant” value is 0 °C.

As to K91Q, the Tm is 61 °C and the “change of melting temperature, mutant” value was -4 °C.

For the variant T154I, the Tm came to 62 °C and the “change of melting temperature, mutant” value was -3 °C.

On to T154V, for which the Tm was 62 °C and the “change of melting temperature, mutant” value was -3 °C.

On to T154L, for which the Tm came to 58.5 °C and the “change of melting temperature, mutant” value is -6.5 °C.

In the case of K193L, the Tm was determined as 65 °C and the “change of melting temperature, mutant” value came to 0 °C.

Take Q209H: the Tm came out at 58 °C and the “change of melting temperature, mutant” value is -7 °C.

On to D80V, for which the Tm was determined as 64 °C and the “change of melting temperature, mutant” value is -1 °C.

For D80E, the Tm worked out at 60 °C and the “change of melting temperature, mutant” value was -5 °C.

In the case of E61R, the Tm is 64.5 °C and the “change of melting temperature, mutant” value was -0.5 °C.

On to E61K, for which the Tm was 68.5 °C and the “change of melting temperature, mutant” value came to 3.5 °C.

Consider S2K, for which the Tm was 66 °C and the “change of melting temperature, mutant” value was determined as 1 °C.

For the variant T27V, the Tm came out at 64.5 °C and the “change of melting temperature, mutant” value is -0.5 °C.

T27M: the Tm was 65 °C and the “change of melting temperature, mutant” value was found to be 0 °C.

T27L: the Tm worked out at 65 °C and the “change of melting temperature, mutant” value is 0 °C.

On to V94L, for which the Tm came to 63.5 °C and the “change of melting temperature, mutant” value is -1.5 °C.

The values above are taken from FireProtDB (doi:10.1093/protein/gzw068).
